Article doi:10.1101/2023.05.06.539669 (bioRxiv, 2023)
Values joined by “and” are separate entries in the source; they are usually repeats but may differ in a detail not shown here. Identical values can stand only once. Where no end group is shown, it is not given here.

Molecular target: bacterially expressed wild-type HRAS (human, UniProt P01112 1-189)
Experiment: ITC

bacterially expressed wild-type HRAS, sequence (P01112 whole entry): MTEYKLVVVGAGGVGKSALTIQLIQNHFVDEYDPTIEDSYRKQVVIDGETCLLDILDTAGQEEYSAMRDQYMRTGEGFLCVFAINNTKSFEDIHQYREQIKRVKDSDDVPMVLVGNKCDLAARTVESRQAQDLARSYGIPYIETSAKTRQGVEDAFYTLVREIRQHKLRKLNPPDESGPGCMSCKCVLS

In the case of YRLEKQSEPNV-NH2 [S-016-1034 (CDRI-S-016-1034), 11-mer peptide derived from the RAS-Binding-Domain of mSIN1], the Kd is reported as 9.54 µM and 8.95 µM.
